Assay results from publication PMC7846606.

Biological target: PRC2:EZH1 (EZH1, EED, SUZ12, RBAP48, AEBP2 and JARID2) (UniProt Q92800)
Assay: SEC-MALS; TSKgel G4000SWxl, 20 mM Tris-HCl pH 7.5, 300 mM NaCl, 1 mM DTT, 0.5 ml/min; complexes at 1.25 mg/ml, 30 μl injected

“PRC2:EZH1 (EZH1, EED, SUZ12, RBAP48, AEBP2 and JARID2) (from UniProt Q92800 1-747; Q15022 1-739; O75530 1-441; Q09028 1-425; Q6ZN18 209-503; Q92833 1-1246) (complex)” showed a stoichiometry N of 2.
